The source of these data is PMC6778059 (Nature cell biology, 2019).

Common to all, as to assay: ITC
In one experiment the target is SNX32 PX domain.
A further experiment concerns the target T1, SNX6 PX domain (UniProt Q9UNH7 26-173).
T1 sequence: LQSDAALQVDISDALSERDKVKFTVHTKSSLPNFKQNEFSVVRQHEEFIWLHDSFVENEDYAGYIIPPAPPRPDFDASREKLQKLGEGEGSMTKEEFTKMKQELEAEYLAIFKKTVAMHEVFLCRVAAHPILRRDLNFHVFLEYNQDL

The next experiment has as its target T2, SNX5 PX domain (UniProt Q9Y5X3 25-172).
T2 sequence: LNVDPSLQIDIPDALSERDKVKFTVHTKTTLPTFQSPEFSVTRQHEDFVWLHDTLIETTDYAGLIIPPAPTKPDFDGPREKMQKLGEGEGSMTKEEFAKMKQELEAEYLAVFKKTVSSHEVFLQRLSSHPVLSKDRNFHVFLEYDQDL

As for “CI-MPR peptide (residues 2347-2375) (from UniProt P11717 2347-2375)”, the Kd with SNX32 PX domain amounted to 12 µM.
Consider SNVSYKYSKVNKEEETDENETEWLMEEIQ [CI-MPR peptide (residues 2347-2375)], for which the figures for the Kd in the experiment with SNX6 PX domain and in the experiment with SNX5 PX domain were 24 µM and approximately 25 µM, respectively.
Consider SNVSYKYSKVNKEEETDENETEWLDEEIQ [CI-MPR peptide M2371D], for which the binding result with SNX5 PX domain is “binds”.
The same measure, in the same setting: the entry for SNVSYKYSKVNKEEETDENETEWDMEEIQ [CI-MPR peptide L2370D] is “binds”; for SNVSYKYSKVNKEEETDENETEAAAEEIQ [CI-MPR peptide WLM-AAA] it is “binds”.
For the molecule WDPVGYYYSDGSLKIVPGHARCQPG [SEMA4C peptide (residues 731-755)], the Kd with SNX5 PX domain was 26 µM.
The molecule REVSFYYSEENKLPEPEELDLEPENMES [IGF1R peptide (residues 1275-1302)] showed a Kd with SNX5 PX domain of 15 µM.
